Test results as given in publication PMC4245953, “Hug1 is an intrinsically disordered protein that inhibits ribonucleotide reductase activity by directly binding Rnr2 subunit” (Nucleic Acids Research, 2014).

Key:
[1] = target: Rnr2-Rnr4 (Saccharomyces cerevisiae) (UniProt P09938); settings: cited from earlier work
[2] = target: RNR R2 (Escherichia coli) (UniProt P69924); settings: cited from earlier work
RNR R2 (Mus musculus) = RNR R2 (Mus musculus) (UniProt P11157); settings: cited from earlier work
[3] = target: Rnr1 (Saccharomyces cerevisiae) (UniProt P21524); settings: cited from earlier work
[4] = target: Cdc22 (R1) (Schizosaccharomyces pombe) (UniProt P36602); settings: cited from earlier work
(His)6-Rnr2-Rnr4 complex = target: T1, (His)6-Rnr2-Rnr4 complex (S. cerevisiae, UniProt P09938 1-399; P49723 1-345); assay: NMR titration; 1H-15N HSQC of 15N-Hug1 with increasing unlabeled (His)6-Rnr2-Rnr4; Tris-d11 10 mM pH 7.5; 22°C (50 uM Hug1, ratios 1:0.125 to 1:1.6, global fit of four peaks, 1:1 model) and 9°C (16.4 uM Hug1, ratio 1:2); settings: both partners purified
T1 construct: Rnr2, S. cerevisiae; Rnr4, S. cerevisiae; also called Rnr2/4; source: E. coli BL21 (DE3) gold, co-expressed; purified (Ni-NTA, anion exchange) for NMR; 'purified' by the text or 'soluble extracts' by the legend in the pull-down
T1 sequence (looked up) 1: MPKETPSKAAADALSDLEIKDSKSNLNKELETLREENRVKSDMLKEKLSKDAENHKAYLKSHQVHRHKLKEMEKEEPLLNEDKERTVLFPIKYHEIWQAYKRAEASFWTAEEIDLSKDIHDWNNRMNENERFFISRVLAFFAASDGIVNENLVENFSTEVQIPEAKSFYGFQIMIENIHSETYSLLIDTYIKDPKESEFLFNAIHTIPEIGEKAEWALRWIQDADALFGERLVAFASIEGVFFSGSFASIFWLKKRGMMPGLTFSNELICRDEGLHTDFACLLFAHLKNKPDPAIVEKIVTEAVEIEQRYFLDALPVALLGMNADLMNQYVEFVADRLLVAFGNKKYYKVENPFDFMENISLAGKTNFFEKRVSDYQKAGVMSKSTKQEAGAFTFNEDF
T1 sequence (looked up) 2: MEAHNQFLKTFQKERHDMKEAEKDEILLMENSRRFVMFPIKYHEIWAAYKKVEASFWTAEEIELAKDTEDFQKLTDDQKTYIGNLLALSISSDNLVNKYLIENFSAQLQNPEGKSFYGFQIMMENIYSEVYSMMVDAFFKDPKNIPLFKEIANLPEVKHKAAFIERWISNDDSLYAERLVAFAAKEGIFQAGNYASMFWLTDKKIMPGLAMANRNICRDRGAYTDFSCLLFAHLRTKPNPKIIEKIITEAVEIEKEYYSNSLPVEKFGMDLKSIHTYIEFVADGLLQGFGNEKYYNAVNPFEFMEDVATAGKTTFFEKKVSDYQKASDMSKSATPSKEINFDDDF

Chain of RNR R2 (Mus musculus) (P11157 whole entry): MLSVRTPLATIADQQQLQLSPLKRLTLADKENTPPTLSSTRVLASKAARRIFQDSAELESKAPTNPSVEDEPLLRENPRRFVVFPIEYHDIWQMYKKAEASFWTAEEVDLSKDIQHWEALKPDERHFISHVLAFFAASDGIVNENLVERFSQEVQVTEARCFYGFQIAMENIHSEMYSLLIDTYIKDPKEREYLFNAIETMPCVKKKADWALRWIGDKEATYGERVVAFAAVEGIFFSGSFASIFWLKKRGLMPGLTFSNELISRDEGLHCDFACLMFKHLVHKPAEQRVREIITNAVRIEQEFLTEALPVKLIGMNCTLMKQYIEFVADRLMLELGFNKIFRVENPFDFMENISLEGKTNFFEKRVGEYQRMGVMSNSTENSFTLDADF
Chain of Rnr1 (Saccharomyces cerevisiae) (P21524 whole entry): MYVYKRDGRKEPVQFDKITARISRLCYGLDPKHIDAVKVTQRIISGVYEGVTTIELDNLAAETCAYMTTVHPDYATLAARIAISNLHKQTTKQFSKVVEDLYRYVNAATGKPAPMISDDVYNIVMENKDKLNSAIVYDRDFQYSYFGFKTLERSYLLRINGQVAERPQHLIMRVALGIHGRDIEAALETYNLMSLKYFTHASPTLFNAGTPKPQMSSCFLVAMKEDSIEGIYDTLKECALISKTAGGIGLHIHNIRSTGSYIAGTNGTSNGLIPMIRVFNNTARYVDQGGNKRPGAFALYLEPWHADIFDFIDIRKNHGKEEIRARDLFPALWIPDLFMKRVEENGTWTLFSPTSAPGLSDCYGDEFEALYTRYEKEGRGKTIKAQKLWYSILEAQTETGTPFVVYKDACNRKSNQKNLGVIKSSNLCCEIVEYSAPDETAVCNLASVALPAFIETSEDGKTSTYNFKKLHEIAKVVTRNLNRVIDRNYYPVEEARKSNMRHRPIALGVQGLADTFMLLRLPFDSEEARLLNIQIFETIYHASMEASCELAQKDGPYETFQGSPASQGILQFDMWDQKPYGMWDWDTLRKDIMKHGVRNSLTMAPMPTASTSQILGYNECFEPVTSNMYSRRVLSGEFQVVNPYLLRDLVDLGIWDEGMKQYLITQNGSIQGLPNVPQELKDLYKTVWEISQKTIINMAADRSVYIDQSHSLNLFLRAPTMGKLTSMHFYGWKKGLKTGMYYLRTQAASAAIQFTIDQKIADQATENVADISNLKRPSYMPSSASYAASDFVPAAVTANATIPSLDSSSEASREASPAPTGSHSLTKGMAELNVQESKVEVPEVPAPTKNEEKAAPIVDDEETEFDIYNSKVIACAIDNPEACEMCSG
Chain of RNR R2 (Escherichia coli) (P69924 2-376): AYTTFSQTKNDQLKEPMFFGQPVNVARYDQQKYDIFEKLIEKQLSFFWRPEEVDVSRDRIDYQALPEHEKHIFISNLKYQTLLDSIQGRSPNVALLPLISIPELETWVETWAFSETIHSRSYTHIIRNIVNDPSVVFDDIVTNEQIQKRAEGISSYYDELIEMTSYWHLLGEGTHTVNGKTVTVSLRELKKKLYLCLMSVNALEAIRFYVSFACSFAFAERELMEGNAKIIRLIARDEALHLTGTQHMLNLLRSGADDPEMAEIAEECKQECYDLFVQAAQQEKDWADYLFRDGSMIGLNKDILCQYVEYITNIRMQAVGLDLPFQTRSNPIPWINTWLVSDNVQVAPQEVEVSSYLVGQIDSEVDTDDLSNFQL
Chain of Cdc22 (R1) (Schizosaccharomyces pombe) (P36602 whole entry): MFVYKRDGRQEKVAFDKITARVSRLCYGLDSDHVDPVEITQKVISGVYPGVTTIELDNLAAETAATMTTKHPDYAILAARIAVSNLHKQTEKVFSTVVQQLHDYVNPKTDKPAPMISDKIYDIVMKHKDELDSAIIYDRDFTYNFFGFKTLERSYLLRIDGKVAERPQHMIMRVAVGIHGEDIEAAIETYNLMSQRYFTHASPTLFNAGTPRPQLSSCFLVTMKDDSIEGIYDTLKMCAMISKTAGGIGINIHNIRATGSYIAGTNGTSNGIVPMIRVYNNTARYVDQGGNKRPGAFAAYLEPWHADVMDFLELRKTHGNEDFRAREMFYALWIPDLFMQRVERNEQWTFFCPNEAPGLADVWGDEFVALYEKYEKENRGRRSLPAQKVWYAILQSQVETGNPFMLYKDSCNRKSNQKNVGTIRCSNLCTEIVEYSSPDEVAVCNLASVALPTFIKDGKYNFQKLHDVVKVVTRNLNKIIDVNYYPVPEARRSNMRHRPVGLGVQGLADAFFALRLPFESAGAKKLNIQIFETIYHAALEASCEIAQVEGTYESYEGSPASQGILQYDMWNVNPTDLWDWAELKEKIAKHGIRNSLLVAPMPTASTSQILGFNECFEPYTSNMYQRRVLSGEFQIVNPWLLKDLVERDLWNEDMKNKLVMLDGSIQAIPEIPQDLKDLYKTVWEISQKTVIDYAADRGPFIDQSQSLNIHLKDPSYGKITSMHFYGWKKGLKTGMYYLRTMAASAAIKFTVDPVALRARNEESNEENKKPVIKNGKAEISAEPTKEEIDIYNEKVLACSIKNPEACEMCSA

Molecule: Dif1 (from UniProt O13577)
- Kd [1]: 600 nM

Molecule: RNR R1 (from UniProt P00452)
- Kd [2]: 100 nM

Molecule: RNR R1 (from UniProt P07742)
- Kd (RNR R2 (Mus musculus)): 100 nM

Molecule: Sml1 (from UniProt Q04964)
- Kd [3]: 400 nM

Molecule: Spd1 (from UniProt Q10585)
- Kd [4]: 2400 nM

B1: Recombinant Hug1 (tags cleaved), 15N-labeled (natural protein, S. cerevisiae, UniProt Q6Q5K6 1-68, looked up)
chain: MTMDQGLNPKQFFLDDVVLQDTLCSMSNRVNKSVKTGYLFPKDHVPSANIIAVERRGGLSDIGKNTSN
modifications: also: uniformly 15N-labeled
notes: Hug1, S. cerevisiae, released from (His)6-GST-TEV site-Hug1 by TEV protease; calculated mass 7.5 kDa; protein of 68 residues; also called 15N-Hug1; purified recombinant Hug1; source: E. coli BL21 (DE3) gold, purified (Glutathione-agarose, TEV cleavage, Ni-NTA flow-through); not shown: His6, N-terminal, cleaved; GST, N-terminal, cleaved
- Kd ((His)6-Rnr2-Rnr4 complex): 1600 ± 600 nM
